One test addresses IL9 receptor (IL9R) (UniProt Q01114). Briefly: cell-based or functional assay.
Another test concerns the target GMCSF receptor (GMCSFR) (UniProt Q00941). The experiment in a line: cell-based or functional assay.
UniProt Q00941, sequence (Q00941 30-388, chain 1 of 2): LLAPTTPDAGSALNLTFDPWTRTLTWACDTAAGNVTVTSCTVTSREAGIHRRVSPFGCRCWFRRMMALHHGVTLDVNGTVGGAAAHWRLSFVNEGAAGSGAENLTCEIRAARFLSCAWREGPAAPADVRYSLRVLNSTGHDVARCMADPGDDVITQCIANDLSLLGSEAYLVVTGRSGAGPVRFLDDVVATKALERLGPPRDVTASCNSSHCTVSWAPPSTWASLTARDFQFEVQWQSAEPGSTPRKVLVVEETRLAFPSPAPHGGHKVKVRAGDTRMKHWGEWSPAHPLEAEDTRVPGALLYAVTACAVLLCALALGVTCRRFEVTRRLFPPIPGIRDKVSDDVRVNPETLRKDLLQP
UniProt Q00941, sequence (P26955 23-896, chain 2 of 2, further chain): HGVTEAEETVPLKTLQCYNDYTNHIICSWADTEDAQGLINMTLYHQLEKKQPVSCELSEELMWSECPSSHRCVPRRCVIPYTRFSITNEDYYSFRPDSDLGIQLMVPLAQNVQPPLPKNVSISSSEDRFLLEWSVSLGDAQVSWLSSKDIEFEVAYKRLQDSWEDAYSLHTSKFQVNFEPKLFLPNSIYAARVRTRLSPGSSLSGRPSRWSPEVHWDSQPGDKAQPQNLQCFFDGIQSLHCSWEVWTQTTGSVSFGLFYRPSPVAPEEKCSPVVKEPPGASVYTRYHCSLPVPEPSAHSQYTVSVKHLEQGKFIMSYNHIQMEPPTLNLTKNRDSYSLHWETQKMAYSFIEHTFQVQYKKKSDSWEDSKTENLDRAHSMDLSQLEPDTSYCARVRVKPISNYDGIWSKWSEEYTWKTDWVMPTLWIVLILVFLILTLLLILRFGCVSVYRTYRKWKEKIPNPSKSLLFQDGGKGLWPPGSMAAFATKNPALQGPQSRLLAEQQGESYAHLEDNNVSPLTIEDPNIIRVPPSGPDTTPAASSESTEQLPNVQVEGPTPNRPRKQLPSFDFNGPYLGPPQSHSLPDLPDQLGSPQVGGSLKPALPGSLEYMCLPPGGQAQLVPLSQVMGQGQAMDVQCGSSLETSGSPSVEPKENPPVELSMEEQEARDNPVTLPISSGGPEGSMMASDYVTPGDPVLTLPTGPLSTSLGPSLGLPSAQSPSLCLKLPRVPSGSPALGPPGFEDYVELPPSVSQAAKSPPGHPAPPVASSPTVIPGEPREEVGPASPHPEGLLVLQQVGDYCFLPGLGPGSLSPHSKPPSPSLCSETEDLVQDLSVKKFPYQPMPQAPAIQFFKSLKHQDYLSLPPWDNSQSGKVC

UniProt Q01114, sequence (Q01114 38-468 limits assumed, chain 1 of 2): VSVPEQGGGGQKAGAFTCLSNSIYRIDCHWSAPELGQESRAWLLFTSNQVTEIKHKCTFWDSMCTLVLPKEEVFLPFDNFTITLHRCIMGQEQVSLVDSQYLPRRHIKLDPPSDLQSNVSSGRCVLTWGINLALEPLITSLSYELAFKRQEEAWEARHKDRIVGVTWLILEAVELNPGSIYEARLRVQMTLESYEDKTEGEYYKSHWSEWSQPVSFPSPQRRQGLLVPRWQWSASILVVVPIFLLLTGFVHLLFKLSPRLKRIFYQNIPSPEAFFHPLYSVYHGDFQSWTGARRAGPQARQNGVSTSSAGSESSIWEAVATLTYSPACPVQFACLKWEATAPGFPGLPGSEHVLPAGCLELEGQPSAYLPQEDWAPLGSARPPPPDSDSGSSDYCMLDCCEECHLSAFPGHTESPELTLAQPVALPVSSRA
UniProt Q01114, sequence (P34902 23-369 limits assumed, chain 2 of 2, further chain): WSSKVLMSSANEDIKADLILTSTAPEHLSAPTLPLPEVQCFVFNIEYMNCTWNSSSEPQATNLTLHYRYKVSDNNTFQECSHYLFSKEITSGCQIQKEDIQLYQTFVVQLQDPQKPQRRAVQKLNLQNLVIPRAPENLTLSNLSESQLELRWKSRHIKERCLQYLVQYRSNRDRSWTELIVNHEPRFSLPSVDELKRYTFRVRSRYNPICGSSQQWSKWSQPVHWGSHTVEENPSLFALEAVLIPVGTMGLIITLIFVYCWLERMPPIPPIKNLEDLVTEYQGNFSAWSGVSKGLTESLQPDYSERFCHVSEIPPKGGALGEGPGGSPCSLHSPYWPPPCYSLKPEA

For “mouse GIFT9 (fusion of mouse GMCSF and mouse IL9) (ligand)”, the proliferative rate of bone marrow derived mast cells (MTT assay, 5 days) in the test with IL9 receptor (IL9R) and with GMCSF receptor (GMCSFR) was 100% throughout.

Values taken from patent US20140348781A1.
